Tested on: FLP recombinase
Assay: cell_activity
Settings: excision of y+ donor flanked by FRTs (33,668/33,790 w+ progeny lost y+), with I-SceI co-expressed in Drosophila

## FRT (FLP recombination target) from yeast 2 micron plasmid
  activity: 99.6%

Source: patent US20040068761
